Data taken from US20040019188A1, “Targeting through integrins” (priority 2000, published 2004).

Target: α5β1 integrin (major fibronectin receptor) on HEp-2 cells (human), P08648
Sequence (P08648 42-1049, chain 1 of 2): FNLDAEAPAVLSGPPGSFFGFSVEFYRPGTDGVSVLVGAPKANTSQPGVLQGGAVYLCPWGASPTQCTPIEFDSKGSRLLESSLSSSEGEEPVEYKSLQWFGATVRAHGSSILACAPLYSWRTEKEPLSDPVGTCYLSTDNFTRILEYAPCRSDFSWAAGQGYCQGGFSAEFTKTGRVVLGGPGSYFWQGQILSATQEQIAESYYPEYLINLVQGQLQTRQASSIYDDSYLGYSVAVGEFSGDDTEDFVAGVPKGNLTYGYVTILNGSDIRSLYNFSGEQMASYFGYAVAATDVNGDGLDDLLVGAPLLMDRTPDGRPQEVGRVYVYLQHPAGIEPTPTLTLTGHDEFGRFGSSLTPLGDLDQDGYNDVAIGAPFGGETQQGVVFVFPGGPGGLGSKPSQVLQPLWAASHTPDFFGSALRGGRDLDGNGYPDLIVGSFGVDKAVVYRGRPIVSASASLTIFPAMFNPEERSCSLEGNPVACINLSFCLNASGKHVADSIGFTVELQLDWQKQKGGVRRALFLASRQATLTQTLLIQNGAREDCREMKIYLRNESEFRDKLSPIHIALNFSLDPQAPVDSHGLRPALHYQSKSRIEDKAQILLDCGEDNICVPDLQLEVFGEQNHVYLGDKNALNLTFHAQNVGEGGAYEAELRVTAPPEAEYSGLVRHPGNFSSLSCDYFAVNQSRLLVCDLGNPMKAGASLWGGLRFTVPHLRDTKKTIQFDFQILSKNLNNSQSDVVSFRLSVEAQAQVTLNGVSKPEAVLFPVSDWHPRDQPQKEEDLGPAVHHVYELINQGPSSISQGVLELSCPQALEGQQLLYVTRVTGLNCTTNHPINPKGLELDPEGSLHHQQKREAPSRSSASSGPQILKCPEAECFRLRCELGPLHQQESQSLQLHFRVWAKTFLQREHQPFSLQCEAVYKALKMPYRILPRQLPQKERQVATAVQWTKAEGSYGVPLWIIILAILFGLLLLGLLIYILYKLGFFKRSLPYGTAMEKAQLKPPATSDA
Sequence (P05556 21-798, chain 2 of 2, further chain): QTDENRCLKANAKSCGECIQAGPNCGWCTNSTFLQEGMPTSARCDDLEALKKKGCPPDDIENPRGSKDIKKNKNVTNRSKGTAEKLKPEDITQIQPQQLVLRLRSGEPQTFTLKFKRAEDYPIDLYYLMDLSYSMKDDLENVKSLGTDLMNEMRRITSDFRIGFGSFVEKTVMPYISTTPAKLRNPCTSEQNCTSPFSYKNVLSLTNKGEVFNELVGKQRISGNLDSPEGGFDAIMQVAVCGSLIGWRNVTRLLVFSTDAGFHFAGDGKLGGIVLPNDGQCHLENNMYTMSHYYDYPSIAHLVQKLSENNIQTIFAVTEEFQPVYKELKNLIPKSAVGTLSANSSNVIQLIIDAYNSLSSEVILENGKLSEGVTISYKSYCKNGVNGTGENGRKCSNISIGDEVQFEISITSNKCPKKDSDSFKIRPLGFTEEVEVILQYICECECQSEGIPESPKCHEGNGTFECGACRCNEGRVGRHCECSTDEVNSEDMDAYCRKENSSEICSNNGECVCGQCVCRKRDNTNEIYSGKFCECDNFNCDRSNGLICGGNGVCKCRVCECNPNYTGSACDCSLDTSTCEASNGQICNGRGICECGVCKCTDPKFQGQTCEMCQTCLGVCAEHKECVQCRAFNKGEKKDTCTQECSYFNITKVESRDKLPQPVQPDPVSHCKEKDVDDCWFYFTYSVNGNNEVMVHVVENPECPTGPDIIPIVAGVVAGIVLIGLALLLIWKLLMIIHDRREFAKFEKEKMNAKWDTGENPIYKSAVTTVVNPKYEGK

RGDS (modifications not checked) [RGDS peptide (Gibco)] gave an ID30 of 170 µM.
